Assay results as given in patent publication US20200216495A1 (ADRX, published 2020).
Several values for one entry are separate records, joined by “and”; a condition that tells them apart may be missing. Equal entries are not always repeated. Square brackets hold non-standard residues; d marks the D form. Ends that are not written are not given here. dNle = CCCC[C@@H](N)C(=O)O

Target: Tau40 P301L protein (human)
Test: cell-based or functional assay

IC50, Tau40 assay (ThT) | Binder
1160 nM | [dL][dH][dL][dK][dI][dR][dY][dH] [lhlkiryh (PEPTIDE ID NO: 410)]
1390 nM and 1510 nM | [dF][dK][dL][dH][dL][dR][dH][dW] [fklhlrhw (PEPTIDE ID NO: 126)]
1410 nM | [dH][dR][dL][dK][dV][dR][dW][dW] [hrlkvrww (PEPTIDE ID NO: 265)]
1290 nM | [dW][dR][dL][dW][dI][dH][dW] [wrlwihw (PEPTIDE ID NO: 428)]
1280 nM | [dW][dR][dL][dR][dM][dH][dW] [wrlrmhw (PEPTIDE ID NO: 260)]
1310 nM | [dF][dR][dV][dR][dI][dR][dH][dW] [frvrirhw (PEPTIDE ID NO: 118)]
1130 nM | [dW][dW][dR][dF][dH][dW][dR] [wwrfhwr (PEPTIDE ID NO: 43)]
1470 nM and 710 nM | [dR][dI][dR][dI][dR][dW] [ririrw (PEPTIDE ID NO: 75)]
1320 nM | [dF][dW][dR][dL][dK][dV][dR][dW] [fwrlkvrw (PEPTIDE ID NO: 261)]
1250 nM | [dW][dA][dL][dK][dV][dR][dW] [walkvrw (PEPTIDE ID NO: 257)]
1220 nM and 1540 nM | [dL][dR][dI][dR][dL][dH][dH][dF] [lrirlhhf (PEPTIDE ID NO: 146)]
650 nM and 1020 nM | [dW][dK][dL][dW][dL][dR][dW] (not fully specified; printed as wklwlrw) [wklwlrw (PEPTIDE ID NO: 91)]
1330 nM | [dW][dR][dL][dR][dI][dH][dT] [wrlriht (PEPTIDE ID NO: 262)]
1420 nM and 1070 nM | [dL][dK][dI][dR][dL][dH][dH][dW] [lkirlhhw (PEPTIDE ID NO: 143)]
1370 nM and 1460 nM | [dF][dR][dI][dK][dL][dR][dW] [friklrw (PEPTIDE ID NO: 47)]
1380 nM and 2080 nM | [dF][dW][dL][dK][dL][dR][dW][dF] [fwlklrwf (PEPTIDE ID NO: 15)]
1110 nM | [dW][dL][dR][dV][dQ][dV][dK][dL][dW] [wlrvqvklw (PEPTIDE ID NO: 416)]
1190 nM | [dY][dL][dK][dI][dR][dI][dH][dY] [ylkirihy (PEPTIDE ID NO: 256)]
1340 nM | [dF][dK][dI][dH][dL][dR][dH][dW] [fkihlrhw (PEPTIDE ID NO: 124)]

IC50, Tau40 assay (ThT) | Binder
1200 nM and 1470 nM | [dF][dR][dL][dR][dI][dH][dW] [frlrihw (PEPTIDE ID NO: 270)]
1160 nM | [dE][dL][dK][dI][dR][dI][dH][dY] [elkirihy (PEPTIDE ID NO: 253)]
1270 nM and 990 nM | [dW][dK][dV][dW][dV][dR]G[dW] (not fully specified (residue 7); printed as wkvwvrgw) [wkvwvrgw (PEPTIDE ID NO: 93)]
1120 nM and 1210 nM | [dW][dI][dK][dI][dR][dW] [wikirw (PEPTIDE ID NO: 21)]
1250 nM and 670 nM | [dL][dK][dI][dR][dI][dH][dY][dH] [lkirihyh (PEPTIDE ID NO: 147)]
1120 nM | [dL][dK][dI][dR][dI][dNle][dY] [lkiriuy (PEPTIDE ID NO: 251)]
1270 nM and 1430 nM | [dY][dR][dV][dR][dI][dE][dW][dL] [yrvriewl (PEPTIDE ID NO: 159)]
1260 nM and 1310 nM | [dF][dH][dI][dR][dI][dR][dH][dW] [fhirirhw (PEPTIDE ID NO: 138)]
1120 nM and 1150 nM | [dF][dR][dI][dR][dI][dK][dH][dY] [fririkhy (PEPTIDE ID NO: 114)]
690 nM | [dW][dL][dK][dI][dR][dI][dH][dY] [wlkirihy (PEPTIDE ID NO: 198)]
1190 nM and 1100 nM | [dL][dR][dI][dR][dI][dK][dH][dY] [lririkhy (PEPTIDE ID NO: 145)]
1410 nM and 1870 nM | [dL][dR][dI][dR][dI][dR][dF][dH] [lririrfh (PEPTIDE ID NO: 152)]
1400 nM and 1490 nM | [dR][dI][dK][dI][dR][dW] [rikirw (PEPTIDE ID NO: 26)]
1340 nM and 1360 nM | [dF][dK][dL][dK][dL][dR][dH][dW] [fklklrhw (PEPTIDE ID NO: 125)]
1240 nM and 1310 nM | [dF][dR][dI][dR][dI][dH][dH][dW] [fririhhw (PEPTIDE ID NO: 115)]
1390 nM | [dW][dE][dL][dK][dV][dR][dW][dW] [welkvrww (PEPTIDE ID NO: 264)]
650 nM and 850 nM | [dL][dK][dI][dR][dI][dR][dY][dH] [lkiriryh (PEPTIDE ID NO: 194)]
1210 nM and 1680 nM | [dR][dL][dK][dI][dR][dW] [rlkirw (PEPTIDE ID NO: 23)]
1420 nM | [dH][dW][dR][dL][dK][dV][dR][dW] [hwrlkvrw (PEPTIDE ID NO: 266)]

IC50, Tau40 assay (ThT) | Binder
1460 nM | [dF][dR][dI][dR][dL][dR][dW] [frirlrw (PEPTIDE ID NO: 56)]
1410 nM | [dF][dR][dL][dR][dI][dW][dW] [frlriww (PEPTIDE ID NO: 423)]
1290 nM and 1390 nM | [dL][dK][dI][dH][dI][dR][dH][dW] [lkihirhw (PEPTIDE ID NO: 148)]
1450 nM | [dL][dK][dI][dR][dI][dH][dY][dA] [lkirihya (PEPTIDE ID NO: 269)]
1290 nM and 1110 nM | [dW][dR][dL][dR][dI][dH][dW][dW] [wrlrihww (PEPTIDE ID NO: 20)]
1250 nM | [dH][dL][dK][dI][dR][dI][dH][dY] [hlkirihy (PEPTIDE ID NO: 259)]
1190 nM | [dW][dH][dL][dR][dL][dR][dH][dW] [whlrlrhw (PEPTIDE ID NO: 109)]
1170 nM and 1570 nM | [dM][dR][dL][dK][dV][dR][dW] [mrlkvrw (PEPTIDE ID NO: 254)]
1240 nM | [dF][dR][dL][dK][dL][dR][dH][dW] [frlklrhw (PEPTIDE ID NO: 116)]
660 nM | [dW][dW][dR][dV][dK][dL][dR][dW] [wwrvklrw (PEPTIDE ID NO: 195)]
1170 nM | [dW][dR][dL][dK][dT][dR][dW] [wrlktrw (PEPTIDE ID NO: 255)]
1360 nM | [dW][dR][dL][dK][dF][dR][dW] [wrlkfrw (PEPTIDE ID NO: 263)]
680 nM | [dW][dR][dL][dK][dV][dR][dW][dL] [wrlkvrwl (PEPTIDE ID NO: 197)]
680 nM | [dV][dR][dW][dW][dK][dL][dR][dW] [vrwwklrw (PEPTIDE ID NO: 196)]
1110 nM | [dL][dK][dI][dR][dI][dH][dY][dF] [lkirihyf (PEPTIDE ID NO: 250)]
1430 nM | [dY][dW][dR][dL][dK][dV][dR][dW] [ywrlkvrw (PEPTIDE ID NO: 268)]
1460 nM | [dR][dW][dR][dW][dR][dW] [rwrwrw (PEPTIDE ID NO: 17)]
1150 nM and 1200 nM | [dF][dR][dL][dK][dI][dR][dH][dW] [frlkirhw (PEPTIDE ID NO: 117)]
